Measurements reported in PMC7347513 (Cancer Immunology, Immunotherapy : CII, 2020).

Experiments:
[1] = molecular target: T1, HLA B*0702 presenting HCMV pp65 peptide … on cells (Homo sapiens HLA-B*07:02/B2M; HCMV pp65 …, strain); assay: flow cytometry on cells; details: one partner purified
T1 construct: copies: + +

[2] = molecular target: T2, biotinylated HLA B*0702/HCMV pp65 peptide … complex (Homo sapiens HLA-B*07:02/B2M; HCMV pp65 …, strain, biotin (in vivo, BirA, AviTag)); assay: ELISA; details: both partners purified
T2 construct: copies: + +

[3] = molecular target: T3, biotinylated HLA A*0101/HCMV pp65 peptide […] complex (human HLA-A*01:01 and B2M; HCMV pp65 …, strain, biotin (in vivo, BirA, AviTag)); assay: ELISA; details: both partners purified
T3 construct: copies: + +

[4] = molecular target: T4, HLA A*0101 presenting HCMV pp65 peptide […] on cells (human HLA-A*01:01 and B2M; HCMV pp65 …, strain); assay: flow cytometry on cells; details: one partner purified
T4 construct: copies: + +

[5] = molecular target: T5, HLA A*0201 presenting HCMV pp65 peptide […] on cells (human HLA-A*02:01 and B2M; HCMV pp65 …, strain); assay: flow cytometry on cells; details: one partner purified
T5 construct: copies: + +

[6] = molecular target: T6, biotinylated HLA A*0201/HCMV pp65 peptide […] complex (human HLA-A*02:01 and B2M; HCMV pp65 …, strain, biotin (in vivo, BirA, AviTag)); assay: ELISA; details: both partners purified
T6 construct: copies: + +

[7] = molecular target: T7, biotinylated HLA B*3501/HCMV pp65 peptide … complex (Homo sapiens HLA-B*35:01 and B2M; HCMV …, strain, biotin (in vivo, BirA, AviTag)); assay: ELISA; details: both partners purified
T7 construct: copies: + +

[8] = molecular target: T8, HLA A*0201 on MRC-5 cells loaded with control peptide 13 (…, Trypanosoma cruzi KMP-11) (human HLA-A*02:01 and B2M; Trypanosoma …, strain); assay: flow cytometry on cells; details: one partner purified
T8 construct: copies: + +

[9] = molecular target: T9, HLA A*0201 presenting the HCMV pp65 peptide […], on cells (human HLA-A*02:01 and B2M; HCMV pp65 …, strain); assay: flow cytometry on cells; details: one partner purified
T9 construct: copies: + +

B1: biotinylated Fab C7 (Fab, V domains shown)
VH: EVQLVQSGAEVKKPGASVKVSCKASGYTFTSYYMHWVRQAPGQGLEWMGIINPSDGSTSYAQKFQGRVTMTRDTSTSTAYMELSSLRSEDTAVYYCARYIGIMDVWGQGTTVTVSS
VL: not shown
notes: source: E. coli TG1, biotinylated in vivo, purified (IMAC, Talon beads)
- binding result [1]: binds

B2: Fab C7 tetramer (Fab, V domains shown)
VH: EVQLVQSGAEVKKPGASVKVSCKASGYTFTSYYMHWVRQAPGQGLEWMGIINPSDGSTSYAQKFQGRVTMTRDTSTSTAYMELSSLRSEDTAVYYCARYIGIMDVWGQGTTVTVSS
VL: not shown
notes: copies: 4 + 4
- binding result [1]: binds

B3: Fab C7 (Fab, V domains shown)
VH: EVQLVQSGAEVKKPGASVKVSCKASGYTFTSYYMHWVRQAPGQGLEWMGIINPSDGSTSYAQKFQGRVTMTRDTSTSTAYMELSSLRSEDTAVYYCARYIGIMDVWGQGTTVTVSS
VL: not shown
notes: source: E. coli TG1, purified (IMAC, Talon beads)
- binding result [2]: binds

B4: Fab A6 (Fab, V domains shown)
VH: EVQLVQSGAEVKKPGASVKVSCKASGYTFTSYYMHWVRQSPGQGLEWMGIINPSGGSTSYAQKFQGRVTMTRDTSTSTVYMELSSLRSEDTAVYYCARNGYCSSTSCYDAFDIWGQGTMVTVSS
VL: QSALTQPASVSGSPGQSITISCTGTSSDVGGYNYVSWYQQHPGKAPKVLIYDVNQRISGVPDRFSGSKSGNTASLTISGLQAEDEADYYCCSYAGSSSWVFGGGTRLTVL
notes: as for B3
- binding result [3]: binds

B5: Fab A6 tetramer (Fab, V domains shown)
VH: EVQLVQSGAEVKKPGASVKVSCKASGYTFTSYYMHWVRQSPGQGLEWMGIINPSGGSTSYAQKFQGRVTMTRDTSTSTVYMELSSLRSEDTAVYYCARNGYCSSTSCYDAFDIWGQGTMVTVSS
VL: QSALTQPASVSGSPGQSITISCTGTSSDVGGYNYVSWYQQHPGKAPKVLIYDVNQRISGVPDRFSGSKSGNTASLTISGLQAEDEADYYCCSYAGSSSWVFGGGTRLTVL
notes: copies: 4 + 4
- binding result [4]: binds

B6: biotinylated Fab A6 (Fab, V domains shown)
VH: EVQLVQSGAEVKKPGASVKVSCKASGYTFTSYYMHWVRQSPGQGLEWMGIINPSGGSTSYAQKFQGRVTMTRDTSTSTVYMELSSLRSEDTAVYYCARNGYCSSTSCYDAFDIWGQGTMVTVSS
VL: QSALTQPASVSGSPGQSITISCTGTSSDVGGYNYVSWYQQHPGKAPKVLIYDVNQRISGVPDRFSGSKSGNTASLTISGLQAEDEADYYCCSYAGSSSWVFGGGTRLTVL
notes: as for B1
- binding result [4]: binds

B7: biotinylated Fab A11 (Fab, V domains shown)
VH: EVQLVQSGAEVKRPGASVKVSCKASGYTFTSYGIGWVRQAPGQGLEWMGWISAYSGNTNYAQNFQGRITMTTDTSTSTAYMELRSLRSDDTAVYYCARDFGKWDLPMYGMDVWGQGTTVTVSS
VL: QSVLTQPPSVSVAPGGTARISCGGNNIGTKNVHWYQQKPGQAPVLVMYYNSDRPAGIPERFSGSNSGNTATLTITRVEPGDEADYYCQVWDDRRDHYVFGTGTEVTVL
notes: as for B1
- binding result [5]: binds

B8: biotinylated Fab A9 (Fab, V domains shown)
VH: EVQLVQSGAEVRNPGASVKVSCKASGYTFTSHGINWLRQAPGQGLEWMGWISAYSGNTNYAQNLQDRVSMTTDTSTSTAYMELRSLRSDDTAVYYCARDFGKWDLPMYGMDVWGQGTTVTVSS
VL: QSVLTQPPSVSAAPGQRVTISCSGSSSDIGKSGKNYVAWYQQLPGMAPKLLIHDTIKRPSGIPDRFSASKSGTSATLDITGLQTGDEGDYYCGTWNNNLSAYVFGTGTTITVL
notes: as for B1
- binding result [5]: binds

B9: Fab A9 (Fab, V domains shown)
VH: EVQLVQSGAEVRNPGASVKVSCKASGYTFTSHGINWLRQAPGQGLEWMGWISAYSGNTNYAQNLQDRVSMTTDTSTSTAYMELRSLRSDDTAVYYCARDFGKWDLPMYGMDVWGQGTTVTVSS
VL: QSVLTQPPSVSAAPGQRVTISCSGSSSDIGKSGKNYVAWYQQLPGMAPKLLIHDTIKRPSGIPDRFSASKSGTSATLDITGLQTGDEGDYYCGTWNNNLSAYVFGTGTTITVL
notes: as for B3
- binding result [6]: binds

B10: Fab A11 (Fab, V domains shown)
VH: EVQLVQSGAEVKRPGASVKVSCKASGYTFTSYGIGWVRQAPGQGLEWMGWISAYSGNTNYAQNFQGRITMTTDTSTSTAYMELRSLRSDDTAVYYCARDFGKWDLPMYGMDVWGQGTTVTVSS
VL: QSVLTQPPSVSVAPGGTARISCGGNNIGTKNVHWYQQKPGQAPVLVMYYNSDRPAGIPERFSGSNSGNTATLTITRVEPGDEADYYCQVWDDRRDHYVFGTGTEVTVL
notes: as for B3
- binding result [6]: binds

B11: Fab C5 (Fab, V domains shown)
VH: EVQLVQSGAEVKRPGASVKVSCKASGYTFTNYDINWVRQATGQGLEWMGWMNPNSGNTGYAQKFQGRVTITADKSTSTAYMELSSLRSEDTAVYYCARQGRLRFLEWYMFDPWGQGTLVTVSS
VL: DVVMTQSPLSLPVTPGEPASISCRSSQSLLHSNGYNYLDWYLQKPGQSPQLLIYLGSIRASGVPDRVTGSGSGTDFTLQISRVEAEDVGVYYCMQGLQTPYTFGQGTKLEIK
notes: as for B3
- binding result [7]: binds

B12: biotinylated Fab D10 (Fab, V domains shown)
VH: EVQLVQSGGGVVQPGRSLRLSCAASGFTFSSYGMHWVRQAPGKGLEWVAVISYDGTNTDYADSVKGRFTISRDNSKNTLYLQMNSLRAEDTAVYYCARARGIGVSGTLYFDFWGQGTLVTVSS
VL: EIVMTQSPGTLSLSPGERATLSCRASQSVSSSYLAWYQQKPGQAPRLLIYGASTRATGIPDRFSGSGSGTDFTLTINRLEPEDFAVYYCQQYGSSPGTFGQGTRLEIK
notes: as for B1
- binding result [1]: binds

B13: Fab D10 (Fab, V domains shown)
VH: EVQLVQSGGGVVQPGRSLRLSCAASGFTFSSYGMHWVRQAPGKGLEWVAVISYDGTNTDYADSVKGRFTISRDNSKNTLYLQMNSLRAEDTAVYYCARARGIGVSGTLYFDFWGQGTLVTVSS
VL: EIVMTQSPGTLSLSPGERATLSCRASQSVSSSYLAWYQQKPGQAPRLLIYGASTRATGIPDRFSGSGSGTDFTLTINRLEPEDFAVYYCQQYGSSPGTFGQGTRLEIK
notes: as for B3
- binding result [2]: binds

B14: C1-ETA´ immunotoxin (HLA A*0201-restricted, HCMV-specific Fab antibody C1 coupled to Pseudomonas Exotoxin A) (Fab, V domains shown)
VH: EVQLVQSGAEVKKPGSSVKVSCKASGGTFSSYAISWVRQAPGQGLEWMGGIIPIFGTANYAQKFQGRVTITADESTSTAYMELSSLRSEDTAVYYCARGLAAPDYFDYWGQGTLVTVSS
VL: QSVVTQPPSVSGAPGQRVTISCTGSSSNIGAGYDVHWYQQLPGTAPKLLIYGNSNRPSGVPDRFSGSKSGTSASLAITGLQAEDEADYYCQSYDSSLSGPFYVFGTGTKVTVL
notes: source: E. coli TG1
- binding result [8]: no binding (tested: 50 µg/ml)
- binding result [9]: binds

B15: Fab F3 tetramer (Fab, V domains shown)
VH: QVQLVQSGAEVKKPGASVKVSCKASGYTFTSYYMHWVRQAPGQGLEWMGIINPSGGSTSYAQKFQGRVTMTRDTSTSTVYMELSSLRSEDTAVYYCASGITGAHDYWGQGTLVTVSS
VL: QSVVTQPPSVSGAPGQRVTISCTGSSSNIGAGYDVHWYQQLPGTAPKLLIYENSIRPSGVPDRFSGSKSGTAASLAITGLQAEDEAEYYCQSYDNSLSGPNWVFGGGTKLTVL
notes: copies: 4 + 4
- binding result [4]: binds

B16: Fab C1 (Fab, V domains shown)
VH: EVQLVQSGAEVKKPGSSVKVSCKASGGTFSSYAISWVRQAPGQGLEWMGGIIPIFGTANYAQKFQGRVTITADESTSTAYMELSSLRSEDTAVYYCARGLAAPDYFDYWGQGTLVTVSS
VL: QSVVTQPPSVSGAPGQRVTISCTGSSSNIGAGYDVHWYQQLPGTAPKLLIYGNSNRPSGVPDRFSGSKSGTSASLAITGLQAEDEADYYCQSYDSSLSGPFYVFGTGTKVTVL
notes: as for B3
- binding result [6]: binds

B17: biotinylated Fab C1 (Fab, V domains shown)
VH: EVQLVQSGAEVKKPGSSVKVSCKASGGTFSSYAISWVRQAPGQGLEWMGGIIPIFGTANYAQKFQGRVTITADESTSTAYMELSSLRSEDTAVYYCARGLAAPDYFDYWGQGTLVTVSS
VL: QSVVTQPPSVSGAPGQRVTISCTGSSSNIGAGYDVHWYQQLPGTAPKLLIYGNSNRPSGVPDRFSGSKSGTSASLAITGLQAEDEADYYCQSYDSSLSGPFYVFGTGTKVTVL
notes: as for B1
- binding result [5]: binds

B18: Fab F3 (Fab, V domains shown)
VH: QVQLVQSGAEVKKPGASVKVSCKASGYTFTSYYMHWVRQAPGQGLEWMGIINPSGGSTSYAQKFQGRVTMTRDTSTSTVYMELSSLRSEDTAVYYCASGITGAHDYWGQGTLVTVSS
VL: QSVVTQPPSVSGAPGQRVTISCTGSSSNIGAGYDVHWYQQLPGTAPKLLIYENSIRPSGVPDRFSGSKSGTAASLAITGLQAEDEAEYYCQSYDNSLSGPNWVFGGGTKLTVL
notes: as for B3
- binding result [3]: binds

B19: biotinylated Fab F3 (Fab, V domains shown)
VH: QVQLVQSGAEVKKPGASVKVSCKASGYTFTSYYMHWVRQAPGQGLEWMGIINPSGGSTSYAQKFQGRVTMTRDTSTSTVYMELSSLRSEDTAVYYCASGITGAHDYWGQGTLVTVSS
VL: QSVVTQPPSVSGAPGQRVTISCTGSSSNIGAGYDVHWYQQLPGTAPKLLIYENSIRPSGVPDRFSGSKSGTAASLAITGLQAEDEAEYYCQSYDNSLSGPNWVFGGGTKLTVL
notes: as for B1
- binding result [4]: binds

B20: Fab C1 tetramer (Fab, V domains shown)
VH: EVQLVQSGAEVKKPGSSVKVSCKASGGTFSSYAISWVRQAPGQGLEWMGGIIPIFGTANYAQKFQGRVTITADESTSTAYMELSSLRSEDTAVYYCARGLAAPDYFDYWGQGTLVTVSS
VL: QSVVTQPPSVSGAPGQRVTISCTGSSSNIGAGYDVHWYQQLPGTAPKLLIYGNSNRPSGVPDRFSGSKSGTSASLAITGLQAEDEADYYCQSYDSSLSGPFYVFGTGTKVTVL
notes: copies: 4 + 4
- binding result [5]: binds
